Measured values as given in patent publication EP4534102A1, “ANTIBODY DRUG CONJUGATE (ADC) TARGETING NECTIN 4 AND COMPRISING AN EXATECAN PAYLOAD” (Eli Lilly and Company, priority 2023, dated 2025).

Test: Aggregation by SEC-HPLC
Format: physicochemical
Procedure: As determined by SEC-HPLC, less than 5% material was aggregated. […] (See Figure 2 and corresponding Brief Description). […] (See Figure 3 and corresponding Brief Description). In vitro cytotoxic activity was assessed for the HCT-116-2G10 clone expressing human nectin-4. (See Figure 4 and corresponding Brief Description).
As a comparator ADC, the HA22 anti-Nectin-4 mAb was conjugated to maleimidocaproyl-valine-citrulline-PABC-MMAE to generate enfortumab vedotin. Briefly, a 15 mg/mL solution of the HA22 in 10 mM acetate 1% sorbitol, 3% L-arginine, pH 5.0 was supplemented with a 20% volume of 0.1 M Tris, 25 mM EDTA and 750 mM NaCl, pH 8.4 to adjust the pH of the solution to 7.5, 5 mM EDTA and 150 mM sodium chloride. […] The mixture was stirred for 60 minutes at 5° C, then for 15 additional minutes following the addition of 1 molar equivalents of N-acetylcysteine relative to cysteine reactive linker-MMAE compound. Excess quenched cysteine reactive linker-payload and other reaction components were removed by ultrafiltration/diafiltration of the antibody drug conjugate (ADC) with 10 volumes of 20 mM histidine, pH 6.0. The drug-antibody ratio (DAR) according to LC-MS analysis was 3.79 toxins per conjugated mAb. As determined by SEC-HPLC, less than 1% material was aggregated.

## enfortumab vedotin: HA22 anti-Nectin-4 mAb conjugated to maleimidocaproyl-valine-citrulline-PABC-MMAE; comparator ADC
  material aggregated: less than 1%
